Data on 1 protein can be found in publication PMC12802350, “Opposite effects of spermidine and GC7 in cell culture are dictated by distinct molecular targets” (Biochemical Journal, 2025).

One may read the Km as the concentration of substrate that gives half-maximal velocity.

Substrate in this data set: NCCCCNCCCN
As to the kind of experiment: DCHBS/AAP peroxide-coupled kinetic assay; Km from Michaelis–Menten/inhibition fit. In kind it is biochemical, Bos taurus. The note with it: TPQ (trihydroxyphenylalanine quinone), copper.

B1: bovine serum amine oxidase (BSAO) (Bos taurus) (protein)
chain: REEGGVGSEEGVGKQCHPSLPPRCPSRSPSDQPWTHPDQSQLFADLSREELTTVMSFLTQQLGPDLVDAAQARPSDNCVFSVELQLPPKAAALAHLDRGSPPPAREALAIVFFGGQPQPNVTELVVGPLPQPSYMRDVTVERHGGPLPYYRRPVLLREYLDIDQMIFNRELPQAAGVLHHCCSYKQGGQKLLTMNSAPRGVQSGDRSTWFGIYYNITKGGPYLHPVGLELLVDHKALDPADWTVQKVFFQGRYYENLAQLEEQFEAGQVNVVVIPDDGTGGFWSLKSQVPPGPTPPLQFHPQGPRFSVQGNRVASSLWTFSFGLGAFSGPRVFDVRFQGERLAYEISLQEAGAVYGGNTPAAMLTRYMDSGFGMGYFATPLIRGVDCPYLATYMDWHFVVESQTPKTLHDAFCVFEQNKGLPLRRHHSDFLSHYFGGVAQTVLVFRSVSTMLNYDYVWDMVFYPNGAIEVKLHATGYISSAFLFGAARRYGNQVGEHTLGPVHTHSAHYKVDLDVGGLENWVWAEDMAFVPTAIPWSPEHQIQRLQVTRKQLETEEQAAFPLGGASPRYLYLASKQSNKWGHPRGYRIQTVSFAGGPMPQNSPMERAFSWGRYQLAITQRKETEPSSSSVFNQNDPWTPTVDFSDFINNETIAGKDLVAWVTAGFLHIPHAEDIPNTVTVGNGVGFFLRPYNFFDQEPSMDSADSIYFREGQDAGSCEINPLACLPQAATCAPDLPVFSHGGYPEY
notes: BSAO purified from bovine blood
B1: the Km stood at 173.8 µM.
